Patent US20200023081A1, “SELF-ASSEMBLING CYCLOPEPTIDE-DYE COMPOUNDS, FORMULATIONS THEREOF, AND USES THEREOF” (The Board of Trustees of the Leland Stanford Junior …, priority 2018, published 2020)
Values joined by “and” are separate entries in the source; they are usually repeats but may differ in a detail not shown here. Equal entries are not always repeated.

Tests used:
[1] = system: lymphatic vessels and lymph nodes; assay: Lymphatic vessel and lymph node imaging after ID injection; assay type: in vivo, BALB/c mice
Description: FIGS. 4F and 4G show cross-sectional fluorescence intensity profiles taken along red-dashed lines in (FIGS. 4D and 4E). Gaussian fits to the profiles are shown in red dashed curves. Vessel width measurements were taken from Gaussian curves. Lymphatic vessels and lymph node imaging: 3 nmol CH-RGD (FIGS. 4H-4J, 4Q, 4Y), ICG (FIGS. 4K and 4R) and IR800-RGD(s) ID into BALB/c mice (n=4 per probe). NIR-II (50 ms, 1100LP)/NIR-I (100 ms, 814-851BP) imaging was taken 1 h (FIGS. 4H-4J)/(FIG. 4K), 5 h (FIG. 4Q)/FIGS. 4R and 4S), 30 d (FIG. 4U) post ID, injection site (FIG. 4I).
IR800-RGD (3 nmol) was injected intradermally into hair-removed BALB/c mouse (n=4 per probe, male, 1 years old, weight approximately 42 g) tail base. NIR-1 imaging (100 ms, 814 approximately 851 bandpass) was taken 1 h, 3 h, 5 h post-injection. Fluorescent signal appears in mice bladder from 1 h post-injection.
(§1) Teen-week old BALB/c mice (n=3 male and 3 female per group) were obtained from Charles River for bone imaging studies, teen-week old C57BL/6 female mice (n=4 per group) were obtained from Charles River for brain vessel studies, teen-week old NU/NU female mice (n=4 per group) were obtained from Charles River for leg vessel studies, teen-week old BALB/c male mice (n=4 per group) were obtained from Charles River and housed for another 42 weeks for lymph node and lymphatic vessel studies, eight-week old female NU/NU mice (n=3 per group) were obtained from Charles River for tumor targeting studies. Before vessel or tumor imaging, all mice were anaesthetized in a rodent anesthesia machine with 2 l min^−1 O2 gas mixed with 3% Isoflurane. Tail vein injection of contrast agents were carried with a catheter and synchronized with a camera that started continuous image acquisition simultaneously. The IV injected dose was a 200 μL bolus in a 1×PBS solution at specified concentrations. The ID injected dose was a 50 μL bolus in a 1×PBS solution at specified concentrations. During the time course of imaging the mouse was kept anaesthetized by a nose cone delivering 2 l min^−1 02 gas mixed with 3% isoflurane. […]

blood vessels = assay: Blood vessel imaging (brain, hind limb); assay type: in vivo, mice; settings: NIR-I imaging
Description: FIGS. 4A-4W show blood vessel, lymphatic vessel, and lymph node imaging with CH-RGD (NIR-II), ICG and IR800-RGD (NIR-I). 15 nmol CH-RGD, CH-PEG, ICG, IR800-RGD were IV injected into hairless C57BL/6 mice (FIGS. 4A-4C) or nude mice (FIGS. 4D and 4E). NIR-II (FIGS. 4A, 4B, 4D, 1000 ms, 1350LP) and NIR-I imaging (FIGS. 4C, 4E, 200 ms, 814-851BP) was taken 10 min post-injection. FIGS. 4A-4C, C57BL/6 mice brain vessel images.
as §1, with “simultaneously.” for “simultaneously. The IV injected dose was a 200 μL bolus in a 1×PBS solution at specified concentrations. The ID injected dose was a 50 μL bolus in a 1×PBS solution at specified concentrations. During the time course of imaging the mouse was kept anaesthetized by a nose cone delivering 2 l min^−1 02 gas mixed with 3% isoflurane.”

[2] = literature value; cited from earlier work
U87MG tumor [3] = assay: Subcutaneous U87MG tumor imaging, IV vs ID
Description: (§3) Then NIR-II (200 ms, 1000LP) or NIR-I (200 ms, 814-851BP) images were taken at different time points.
(§4) Nude mice were purchased from Charles River. U87MG cells were cultured in Dulbecco's modified Eagle medium containing high glucose (Gibco), which were supplemented with 10% fetal bovine serum and 1% penicillin-streptomycin. The cell was expanded in tissue culture dish and kept in a humidified atmosphere of 5% CO2 at 37° C. The medium was changed every other day. A confluent monolayer was detached with 0.5% trypsin, and dissociated into a single-cell suspension for inoculation. When the mice reached eight weeks in age, mice were inoculated with 1×10^6 U87MG cells on the right front shoulder. The tumor was allowed to grow for approximately 30 days before imaging, at which point they were approximately 30-120 mm^3 in volume.
(§5) Mice were placed on a stage with a venous catheter for IV injection of contrast and imaging agents. 0.5 mL syringe was used directly for ID injection. All NIR-II images were collected on a 640×512 pixel two-dimensional InGaAs array (Princeton Instruments, NIRvana TE 640). The excitation laser was an 808 nm laser diode at a power density of approximately 140 mW cm^−2. Emission was typically collected with 1000, 1050, 1100, 1150, 1200, 1250, 1300, 1350, 1400 nm LP filter (Thorlabs). 50 mm and 75 mm prime lens (Edmund optics) was used to obtain magnifications ranging of 1× (whole body) to 2.5× (high magnification) magnification by changing the relative position of camera, lens and animals. A binning of 1 and a variable exposure time were used for the InGaAs camera (640×512 pixel) to capture images in the NIR-II window. Images were processed with ImageJ.
(§6) All NIR-I images were collected A 1,344×1,024-pixel Hamamatsu silicon CCD detector (Hamamatsu C8484-03G02; pixel number: 1,344×1,024; readout noise: approximately 7 electron r.m.s.; dark current: 0.01 electrons per second per pixel) with an 814-851 nm bond pass filter (Edmund, #84-107). […]

bone = assay type: in vivo, BALB/c mice
Description: FIG. 3A illustrates a supine position, top CH-RGD, bottom CH-RAD 3 h post-injection. 22 nmol CH-RGD or CH-RAD was intravenously injected into 20-25 g hairless BALB/c mice (n=6, 3 males, 3 female). NIR-II imaging (200 ms, 1150LP, 808 nm 140 mW/cm^2 laser excitation) was taken at different time points post-injection (post-injection).
Teen-week old BALB/c mice (n=3 male and 3 female per group) were obtained from Charles River for bone imaging studies, teen-week old C57BL/6 female mice (n=4 per group) were obtained from Charles River for brain vessel studies, teen-week old NU/NU female mice (n=4 per group) were obtained from Charles River for leg vessel studies, teen-week old BALB/c male mice (n=4 per group) were obtained from Charles River and housed for another 42 weeks for lymph node and lymphatic vessel studies, eight-week old female NU/NU mice (n=3 per group) were obtained from Charles River for tumor targeting studies. Before vessel or tumor imaging, all mice were anaesthetized in a rodent anesthesia machine with 2 l min^−1 O2 gas mixed with 3% Isoflurane. Tail vein injection of contrast agents were carried with a catheter and synchronized with a camera that started continuous image acquisition simultaneously. The IV injected dose was a 200 μL bolus in a 1×PBS solution at specified concentrations. The ID injected dose was a 50 μL bolus in a 1×PBS solution at specified concentrations. During the time course of imaging the mouse was kept anaesthetized by a nose cone delivering 2 l min^−1 02 gas mixed with 3% isoflurane. The sample sizes of mice were selected based on previously reported studies. Mice were randomly selected from cages for all experiments. No blinding was performed.
(§2) Images were processed with ImageJ.

U87MG tumor [4] = settings: mouse, in vivo, iv
Description: as §3, §4, §5, §6

[5] = Photostability under continuous 808 nm laser excitation; assay type: physicochemical; settings: 45 min continuous laser excitation (0.33 W/cm^2, 808 nm) in water, pH 7.4 PBS, FBS
Text: The NIR fluorescence spectrum was taken using a home-built NIR spectroscopy setup. The excitation source was a 0.25 W 808 nm laser. The excitation laser was filtered with a combination of an 850/1,000/1,100/1,200/1,300 nm short-pass filters (Thorlabs). The excitation light was allowed to pass through the solution sample in a 1-cm-path-length cuvette (Starna Cells) and the resulting emission filtered through a 900 nm long-pass filter (Thorlabs) to reject the incident excitation laser light. The emitted light was directed into a spectrometer (Princeton Instruments, IsoPlane 160) equipped with a two-dimensional InGaAs array (Princeton Instruments, NIRvana TE 640). Spectra were corrected post-collection to account for the sensitivity of the detector and extinction feature of the filter. Photostability was determined by spiking CH-RGD NPs into FBS, 1× pH 7.4 PBS and DI water, and exposing it in a 1-cm-path-length cuvette (Starna Cells) to continuous 808 nm excitation at a power density of 0.33 W cm^−2 and taking images every 5 mins for approximately 45 min. Stability was determined by measuring the ROI and comparing the fluorescence intensity against the starting fluorescence signal.

[6] = Liver signal decay after IV injection; assay type: in vivo, BALB/c mice; settings: BALB/c, mouse, IV 10 nmol, read-out: elimination half-life from liver signal decay curve (converted)
Text: IV inject 10 nmol CH-RGD NPs into BALB/c mice (n=5). NIR-II fluorescent imaging (10001p, 200 ms) of mice in a supine position were taken 1, 2, 3, 4, 8, 12, 32, 60 days (d) post injection. Of 5 mice, 4 gave the strongest signal 2 days post-injection. One mouse gave it 1 day post-injection. Each liver signal was normalized with the 2 days post-injection intensity. GraphPad Prism 6 one phase decay analysis was used to get the half-life approximately 7.65 d.

[7] = In vitro serum stability in FBS; assay type: in vitro ADME; settings: 37° C.
Description: Fetal Bovine Serum (FBS, Gibco® Catalog #26140) was used to dilute the CH-RGD PBS stock solution into 2 mL, 10 μM mixture solution. And the mixture was incubated at 37° C. in a cell culture incubator for one month. At each designated time point, 200 μL serum mixture were collected for DLS and TEM analysis.

[8] = system: metastatic tail bone tumor (143B); assay: Metastatic 143B bone tumor imaging; assay type: in vivo, mice; settings: ID injection into left hind limb
Description: When the orthotopic 143B tumor grows to 3-4 mm diameter, surgery was performed to resect the tumor. Tumor was cut into pieces, and the visible tumor fragments were taken out. Then the surgical wound was sutured. Although the metastasis was not frequently occurring in mice tail, mice tail metastasis is the easiest diagnostic metastasis. By visual inspection, 143B tail metastasis mouse was chosen out. The mouse was used for imaging experiment when the tumor size reach to approximately 1 mm diameter.

[9] = system: orthotopic bone tumors (143B); assay: Orthotopic 143B osteosarcoma imaging; assay type: in vivo, nude mice; settings: ID injection
Description: Eight-week old female nude mice (Charles River) were anaesthetized using 2.0% isoflurane and positioned on a heating pad (42° C.). The shoulder was cleaned with 70% ethanol and betadine. 1×10^6 143B cells were first injected subcutaneously into the shoulder mice and the tumor allowed to grow to a diameter 5-8 mm solid tumor. The tumors were surgical resected and cut into 1×1×1 mm^3 pieces.
The right tibia of 8-week old NU/NU mice was opened in the central part by drilling with a dental drill for a 0.5 mm diameter hole. One tumor fragment was insert into the hole and contact with the bone marrow. Then the surgical wound was sutured. Mice were observed daily for tumor growth. Palpation, micro CT and 3T MRI were used to monitor the tumor growth. The mouse was used for imaging experiment, when the tumor size had reached to 3-5 mm diameter.

NIH/3T3 cells = assay: MTT cytotoxicity of CH-RGD NPs; assay type: cell-based
Description: The CH-RGD NPs toxicity was determined in vitro with a MTT assay (3-(4,5-dimethylthiazol-2-yl)-2,5-diphenyl tetrazolium bromide, Sigma-Aldrich, St. Louis, Mo.) on NIH/3T3 cells. Approximately 5,000 cells were incubated per well with 200 μL of DMEM growth medium and serially diluted CH-RGD NPs solution (n=6 for each concentration). The cells were kept at 37° C. in a humidified atmosphere containing 5% CO2 for 48 h in the presence of CH-RGD NPs at different concentrations. Immediately before addition of 20 μl of MTT (5 mg/mL), a colorimetric indicator of cell viability, the CH-RGD NPs-spiked medium was removed from each well plate and replaced with 180 μL fresh medium. After 4 h, the medium was carefully removed, 100 μL DMSO was added. Shaking for 10 mins, the color change was quantified using a microplate reader (TECAN Infinite M100) and taking absorbance readings at 570 nm with a reference wavelength of 650 nm. Cell viability was plotted as a fraction of the absorbance of control wells incubated without CH-RGD NPs.

U87MG tumor [10] = assay: Double subcutaneous U87MG tumor imaging; assay type: in vivo, nude mice; settings: IV 10 nmol
Description: FIG. 5A is a color photograph of a nude mouse with double xenograft brain tumor (U87MG) located on the left (approximately 1 mm) and right ([…]) shoulder. Intravenous injection of CH-RGD 10 nmol into the double tumor nude mice (n=3). NIR-II imaging (50 ms, 1000LP) at 3 days post-injection was taken at prone (FIG. 5B), right (FIG. 5C) and left (FIG. 5D) lateral decubitus.
The first right shoulder big tumor implantation is the same as above description. The difference is allowed the tumor grow for 2 to 3 weeks. When the right tumor diameter (ø) was between about 1 to 2 mm, 1×10^6 U87MG cells were injected into the mice left shoulder. After about 1 to 2 weeks, when the left shoulder tumor had grown to a diameter of about 1 mm and the right shoulder tumor was approximately 6 mm in diameter, the mouse was used for imaging.
as §2

[11] = Blood half-life measurement by NIR-II blood signal; assay type: in vivo; settings: mouse, BALB/c mice
Description: Arrows indicate the blood vessel signal.
Half-life: approximately 776 min.

[12] = in DCE; cited from earlier work

Molecule: CC1(C)C(/C=C/C=C/C=C/C=C2\N(CCCCS(=O)(=O)O)c3ccc4ccccc4c3C2(C)C)=[N+](CCCCS(=O)(=O)[O-])c2ccc3ccccc3c21 [ICG, indocyanine green]
- SBR, subiliac lymph node ([1]; 5 h after ID injection): approximately 3
- FWHM, subiliac lymph node ([1]; 5 h after ID injection, Gaussian fitting): 2.8 mm and 2.803 mm
- width of lymphatic vessels detected ([1]; ID injection): greater than 400 μm
- blood vessel detection (blood vessels): only the largest brain blood vessels could be detected
- blood half-life [2]: 3 to 5 min

Molecule: CH-c(RADyk) [CH-RAD]
- mean tumor fluorescent intensity (U87MG tumor [3]; IV administration): 22 k
- ID versus IV injection comparison (U87MG tumor [3]; mouse, in vivo, iv): better TBR through ID injection
- bone accumulation (bone; after 6 h post-injection): no dramatic accumulation in bone
- final concentration in bone by fluorescent intensity, relative to CH-RGD NPs (bone; mouse, in vivo): about half that of CH-RGD NPs
- time of maximum tumor fluorescence and TBR (U87MG tumor [4]): 1 days

Molecule: N=C(N)NCCC[C@@H]1NC(=O)[C@H](CCCCNC(=O)CCc2ccc(N(c3ccc(CCC(=O)O)cc3)c3ccc(-c4c5c(c(-c6ccc(N(c7ccc(CCC(=O)O)cc7)c7ccc(CCC(=O)O)cc7)cc6)c6nsnc46)N=S=N5)cc3)cc2)NC(=O)[C@@H](Cc2ccc(O)cc2)NC(=O)[C@H](CC(=O)O)NC(=O)CNC1=O [CH-RGD, CH-c(RGDyk)]
- photostability [5]: remains stable
- half-life [6]: ~184 h
- time NPs stable in FBS before degrading into smaller NPs [7]: up to 2 weeks
- time BAT could be visualized (bone; mouse, in vivo): 10 days
- time bone signal still visualized, ex-vivo imaging (bone; mouse, in vivo): up to 45 days
- time bone signal still visualized, in vivo imaging (bone; mouse, in vivo): 3 days
- time tumors identified post-injection [8]: 1 days
- time tumor still identifiable [9]: 7 days
- toxicity (NIH/3T3 cells): No obvious toxicity
- time of peak fluorescence intensity, large tumor (U87MG tumor [10]): 4 days
- time tumor fluorescence detectable, smaller tumor (U87MG tumor [10]; approximately 1 mm tumor): 4 h
- time tumor fluorescence detectable, larger tumor (U87MG tumor [10]; approximately 6 mm tumor): approximately 0.5 h
- half-life [11]: ~12.9 h

Molecule: ClC1=C(/C=C/c2cc(-c3ccccc3)[s+]c3ccccc23)CCC/C1=C\C=C1/C=C(c2ccccc2)Sc2ccccc21.[O-][Cl+3]([O-])([O-])[O-] [IR-26]
- quantum yield of reference fluorophore [12]: 0.05%
